# Source: patent publication US20240084003A1 (SIMCERE ZAIMING PHARMACEUTICAL, published 2024)
# T1: monkey CD22 on HEK293T-monkey CD22 cells (monkey)
# T1 construct: full-length entry expressed on stably transfected HEK293T cells
# T1 chain: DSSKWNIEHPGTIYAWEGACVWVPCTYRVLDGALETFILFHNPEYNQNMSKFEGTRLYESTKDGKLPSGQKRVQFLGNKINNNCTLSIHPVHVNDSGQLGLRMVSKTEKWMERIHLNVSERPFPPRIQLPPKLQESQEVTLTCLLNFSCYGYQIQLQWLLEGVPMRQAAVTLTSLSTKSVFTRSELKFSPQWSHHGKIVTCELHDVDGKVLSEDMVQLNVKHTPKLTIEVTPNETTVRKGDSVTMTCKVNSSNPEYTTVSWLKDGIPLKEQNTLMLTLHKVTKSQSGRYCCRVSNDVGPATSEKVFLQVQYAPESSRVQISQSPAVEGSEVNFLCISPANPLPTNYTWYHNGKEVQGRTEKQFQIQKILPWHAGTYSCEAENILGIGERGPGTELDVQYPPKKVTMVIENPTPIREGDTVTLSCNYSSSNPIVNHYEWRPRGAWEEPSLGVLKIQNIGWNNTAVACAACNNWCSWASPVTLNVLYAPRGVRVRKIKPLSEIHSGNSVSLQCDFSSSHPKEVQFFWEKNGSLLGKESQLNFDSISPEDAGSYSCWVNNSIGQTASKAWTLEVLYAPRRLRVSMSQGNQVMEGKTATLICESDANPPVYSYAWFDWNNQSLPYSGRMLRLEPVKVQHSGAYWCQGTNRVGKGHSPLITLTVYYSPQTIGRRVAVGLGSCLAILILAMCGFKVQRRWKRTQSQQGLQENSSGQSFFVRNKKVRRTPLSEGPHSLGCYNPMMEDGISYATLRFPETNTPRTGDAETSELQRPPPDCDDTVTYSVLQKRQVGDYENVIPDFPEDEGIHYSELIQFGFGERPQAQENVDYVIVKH
# Columns and labels:
# [1] = target: T1, monkey CD22 on HEK293T-monkey CD22 cells; assay: FACS, HEK293T-monkey CD22 cells, EC50 column
# Procedure: (§1) For suspension cell Raji, the medium supernatant was directly centrifuged and discarded, and the cell pellet was washed 2 times with PBS. After counting the cells in the previous step, the cell pellet was resuspended with [PBS+2% (w/w) BSA] blocking solution to 2×10⁶ cells/ml, and added to a 96-well FACS reaction plate at 50 μl/well, and then the chimeric antibody test sample was added at 50 μl/well, and incubated on ice for 2 hours. The mixture was centrifuged and washed 3 times with PBS buffer, Alexa Flour 488-labeled secondary antibody (purchased from Invitrogen, catalog number: A-11013) was added at 50 μl/well, and incubated on ice for 1 hour. The obtained mixture was centrifuged and washed 5 times with PBS, and FACS (FACS Canto™, purchased from BD Company) was used for detection and result analysis. Data analysis was performed by software (CellQuest) to obtain the mean fluorescence density (MFI)of the cells. And then software (GraphPad Prism8) was used for analysis, data fitting, and EC50 value calculation. […] The same method was used to detect the binding of the chimeric antibodies to endogenous CD22-negative cell MoLT4 cells (purchased from ATCC, CRL-1582) and CHO-K1 cells.
# (§2) HEK293T-monkey CD22 cells were subjected to FACS detection and data analysis according to the method in Example 5.2.
# [2] = target: T1, monkey CD22 on HEK293T-monkey CD22 cells; assay: FACS, HEK293T-monkey CD22 cells
# Procedure: as §1, §2
binding result [1],Maximum mean fluorescence intensity [2] [MFI],Binder
no binding,83,"F2.343.16 (antibody, human IgG1, lambda, V domains shown, human-murine chimeric IgG1 lambda; VL name legible) VH: QVQLKQSGPGLVQPSQSLSITCTVSGFSLTGYGVQWVRQSPGKGLEWLGVIWGGGGTDYNAAFISRLNIIKDNSKSQVFFKMNSLQADDTAIYYCARYSKYGHFDVWGTGTAVTVSS VL: QAVVTQESALTTSPGETVTLTCRSSTGAVTTSNYANWVQEKPDHLFTGLIGGTYNRVPGVPARFSGSLIGDKAALTITGAQTEDEAIYFCALWYSNHFWVFGGGTKLTVLG"
no binding,69,"F2.180.16 (antibody, human IgG1, lambda, V domains shown, human-murine chimeric IgG1 lambda) VH: EVKLVESGGGLVLPGGSLKISCAASGFTFSDYYMYWIRQTPDKRLEWVAYISNTGYSTFYPDSVKGRFTVSRDNAKNTLYLQMSRLQSEDTAMYYCARHGILYAMDYWGQGTSVTVSS VL: QPVLTQSSSASFSLGASAKLTCTLSSQYSTYTIGWYQQQPLKPPKYVMELKHDGSRHTGDGIPDRFSGSSSGADRYLSISNIQPEDEATYICGVGDTIKEQFMYVFGGGTKVTVLG"
